Reference: IntAct's records for PubMed 20961850

B1: Phospholipid-transporting ATPase IC (Homo sapiens), O43520 (parent)
chain: MSTERDSETTFDEDSQPNDEVVPYSDDETEDELDDQGSAVEPEQNRVNREAEENREPFRKECTWQVKANDRKYHEQPHFMNTKFLCIKESKYANNAIKTYKYNAFTFIPMNLFEQFKRAANLYFLALLILQAVPQISTLAWYTTLVPLLVVLGVTAIKDLVDDVARHKMDKEINNRTCEVIKDGRFKVAKWKEIQVGDVIRLKKNDFVPADILLLSSSEPNSLCYVETAELDGETNLKFKMSLEITDQYLQREDTLATFDGFIECEEPNNRLDKFTGTLFWRNTSFPLDADKILLRGCVIRNTDFCHGLVIFAGADTKIMKNSGKTRFKRTKIDYLMNYMVYTIFVVLILLSAGLAIGHAYWEAQVGNSSWYLYDGEDDTPSYRGFLIFWGYIIVLNTMVPISLYVSVEVIRLGQSHFINWDLQMYYAEKDTPAKARTTTLNEQLGQIHYIFSDKTGTLTQNIMTFKKCCINGQIYGDHRDASQHNHNKIEQVDFSWNTYADGKLAFYDHYLIEQIQSGKEPEVRQFFFLLAVCHTVMVDRTDGQLNYQAASPDEGALVNAARNFGFAFLARTQNTITISELGTERTYNVLAILDFNSDRKRMSIIVRTPEGNIKLYCKGADTVIYERLHRMNPTKQETQDALDIFANETLRTLCLCYKEIEEKEFTEWNKKFMAASVASTNRDEALDKVYEEIEKDLILLGATAIEDKLQDGVPETISKLAKADIKIWVLTGDKKETAENIGFACELLTEDTTICYGEDINSLLHARMENQRNRGGVYAKFAPPVQESFFPPGGNRALIITGSWLNEILLEKKTKRNKILKLKFPRTEEERRMRTQSKRRLEAKKEQRQKNFVDLACECSAVICCRVTPKQKAMVVDLVKRYKKAITLAIGDGANDVNMIKTAHIGVGISGQEGMQAVMSSDYSFAQFRYLQRLLLVHGRWSYIRMCKFLRYFFYKNFAFTLVHFWYSFFNGYSAQTAYEDWFITLYNVLYTSLPVLLMGLLDQDVSDKLSLRFPGLYIVGQRDLLFNYKRFFVSLLHGVLTSMILFFIPLGAYLQTVGQDGEAPSDYQSFAVTIASALVITVNFQIGLDTSYWTFVNAFSIFGSIALYFGIMFDFHSAGIHVLFPSAFQFTGTASNALRQPYIWLTIILAVAVCLLPVVAIRFLSMTIWPSESDKIQKHRKRLKAEEQWQRRQQVFRRGVSTRRSAYAFSHQRGYADLISSGRSIRKKRSPLDAIVADGTAEYRRTGDS
partner: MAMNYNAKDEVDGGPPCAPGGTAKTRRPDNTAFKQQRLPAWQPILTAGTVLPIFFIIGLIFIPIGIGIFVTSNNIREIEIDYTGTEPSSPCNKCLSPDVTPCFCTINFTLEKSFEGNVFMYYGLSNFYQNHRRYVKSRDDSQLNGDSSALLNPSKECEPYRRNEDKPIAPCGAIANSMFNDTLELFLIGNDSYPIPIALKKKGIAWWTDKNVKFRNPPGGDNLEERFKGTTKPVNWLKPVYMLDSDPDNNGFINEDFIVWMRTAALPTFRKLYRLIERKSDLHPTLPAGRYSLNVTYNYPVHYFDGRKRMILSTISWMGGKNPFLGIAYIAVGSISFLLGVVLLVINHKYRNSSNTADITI
B2: Phospholipid-transporting ATPase ID (Homo sapiens), P98198 (parent)
chain: MTVPKEMPEKWARAQAPPSWSRKKPSWGTEEERRARANDREYNEKFQYASNCIKTSKYNILTFLPVNLFEQFQEVANTYFLFLLILQLIPQISSLSWFTTIVPLVLVLTITAVKDATDDYFRHKSDNQVNNRQSQVLINGILQQEQWMNVCVGDIIKLENNQFVAADLLLLSSSEPHGLCYIETAELDGETNMKVRQAIPVTSELGDISKLAKFDGEVICEPPNNKLDKFSGTLYWKENKFPLSNQNMLLRGCVLRNTEWCFGLVIFAGPDTKLMQNSGRTKFKRTSIDRLMNTLVLWIFGFLVCMGVILAIGNAIWEHEVGMRFQVYLPWDEAVDSAFFSGFLSFWSYIIILNTVVPISLYVSVEVIRLGHSYFINWDKKMFCMKKRTPAEARTTTLNEELGQVEYIFSDKTGTLTQNIMVFNKCSINGHSYGDVFDVLGHKAELGERPEPVDFSFNPLADKKFLFWDPSLLEAVKIGDPHTHEFFRLLSLCHTVMSEEKNEGELYYKAQSPDEGALVTAARNFGFVFRSRTPKTITVHEMGTAITYQLLAILDFNNIRKRMSVIVRNPEGKIRLYCKGADTILLDRLHHSTQELLNTTMDHLNEYAGEGLRTLVLAYKDLDEEYYEEWAERRLQASLAQDSREDRLASIYEEVENNMMLLGATAIEDKLQQGVPETIALLTLANIKIWVLTGDKQETAVNIGYSCKMLTDDMTEVFIVTGHTVLEVREELRKAREKMMDSSRSVGNGFTYQDKLSSSKLTSVLEAVAGEYALVINGHSLAHALEADMELEFLETACACKAVICCRVTPLQKAQVVELVKKYKKAVTLAIGDGANDVSMIKTAHIGVGISGQEGIQAVLASDYSFSQFKFLQRLLLVHGRWSYLRMCKFLCYFFYKNFAFTMVHFWFGFFCGFSAQTVYDQYFITLYNIVYTSLPVLAMGVFDQDVPEQRSMEYPKLYEPGQLNLLFNKREFFICIAQGIYTSVLMFFIPYGVFADATRDDGTQLADYQSFAVTVATSLVIVVSVQIGLDTGYWTAINHFFIWGSLAVYFAILFAMHSNGLFDMFPNQFRFVGNAQNTLAQPTVWLTIVLTTVVCIMPVVAFRFLRLNLKPDLSDTVRYTQLVRKKQKAQHRCMRRVGRTGSRRSGYAFSHQEGFGELIMSGKNMRLSSLALSSFTTRSSSSWIESLRRKKSDSASSPSGGADKPLKG
partner: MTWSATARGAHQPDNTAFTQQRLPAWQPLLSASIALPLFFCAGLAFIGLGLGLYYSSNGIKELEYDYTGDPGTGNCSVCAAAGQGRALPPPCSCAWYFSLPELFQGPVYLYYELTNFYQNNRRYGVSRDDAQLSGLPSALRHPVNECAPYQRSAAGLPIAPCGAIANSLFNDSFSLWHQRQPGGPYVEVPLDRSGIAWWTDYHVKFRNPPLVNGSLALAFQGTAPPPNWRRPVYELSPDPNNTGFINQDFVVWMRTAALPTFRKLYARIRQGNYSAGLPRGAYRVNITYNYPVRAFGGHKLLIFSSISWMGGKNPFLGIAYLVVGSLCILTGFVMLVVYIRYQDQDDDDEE
B3: Phospholipid-transporting ATPase IC (Homo sapiens), O43520 (parent)
chain: B1 chain
partner: B2 partner
B4: Phospholipid-transporting ATPase ID (Homo sapiens), P98198 (parent)
chain: B2 chain
partner: B1 partner

Variants of: B1
Details: with cc50a_human TMEM30A

| Variant | effect of a mutation on the interaction |
| --- | --- |
| D454N | decreasing interaction strength |

Variants of: B2
Details: with cc50b_human TMEM30B

| Variant | effect of a mutation on the interaction |
| --- | --- |
| D411N | with no effect |

Variants of: B3
Details: with cc50b_human TMEM30B

| Variant | effect of a mutation on the interaction |
| --- | --- |
| D454N | decreasing interaction strength |

Variants of: B4
Details: with cc50a_human TMEM30A

| Variant | effect of a mutation on the interaction |
| --- | --- |
| D411N | decreasing interaction strength |
